# From the DeepSol protein solubility set
# Assay: soluble on expression in E. coli; label from the status in PepcDB or PDB records
row,Sequence,soluble on expression in E. coli
1,MSLSPPKPSALAHVPGDEGWPIIGRTLAVLADPKGEVEKMARTYGPVYRSRVLGETSITLLGPEANELVLFDNTKLFSSTHGWGPILGRLFPRGLMMLDFDEHRLHRRTLSVAFKAGPMQSYLAELNAGIAHRVAEWRARPGEMLCYPAMKQLTLDLAATSFLGTAIGAETEEVNRAFIDMVAASVAPIRKPWPGTAMARGVKGRQRIVAYFAEQIPIRRAKGGDDLFSQLCRATHDDGALLSNQAIIDHMSFLMMAAHDTLTSSLTSFVAALAAHPEWQQKLREEIAGLGLKPGEPISFEQLDALPLTEMAFKEAMRLRPPVPSLPRRATRAFSFKGYTIPAGTMVAVNPLFTHHMPEIWPNPDQFDPLRFTDEASRGRHRFAWIPYGGGAHMCLGLNFAYMQAKCFAVHLLQHLDLSLPPNYQASWQMWPIPKPKDGLRVNVAPLNEGHHHHHH,soluble
2,MDAIFNNNFEKYKDDPEMTRALMTSKESLEDENWDTYLQWFKENKYEVLEVKEGKNKSTLTVKATFNSFADIPNDDVMGIIFTEVYKASKNKIKSLDEEDDIFDEEFMINVTNKLMDKSKKETKEIKVYMDKVNGKWDLIEDEDNDDDIVNMELISTMTPLLEKFLEITTEFEGFEGF,not soluble
3,MGSDKIHHHHHHMIILFGNQKGGCGKTTNCIQFANYLVEKGKEVLVLDLDFQRSLSDRRKEDIATYDNEPKYEVIQTDISNVAKIISDFTKVEQGNLLIDLPGKIDDDALGTILKAADIIICPFKYDKFTMDSTGFFIQVLQYLNVKAKIFFLPNNMRAAVRYETKEQVVDILKQVGFVTDEIPASVAMERINTLTISNECIDKVKNAYDYIIQEGAIK,not soluble
4,MAAQRRSLLQSEQQPSWTDDLPLCHLSGVGSASNRSYSADGKGTESHPPEDSWLKFRSENNCFLYGVFNGYDGNRVTNFVAQRLSAELLLGQLNAEHAEADVRRVLLQAFDVVERSFLESIDDALAEKASLQSQLPEGVPQHQLPPQYQKILERLKTLEREISGGAMAVVAVLLNNKLYVANVGTNRALLCKSTVDGLQVTQLNVDHTTENEDELFRLSQLGLDAGKIKQVGIICGQESTRRIGDYKVKYGYTDIDLLSAAKSKPIIAEPEIHGAQPLDGVTGFLVLMSEGLYKALEAAHGPGQANQEIAAMIDTEFAKQTSLDAVAQAVVDRVKRIHSDTFASGGERARFCPRHEDMTLLVRNFGYPLGEMSQPTPSPAPAAGGRVYPVSVPYSSAQSTS,soluble
5,MRVVAAHENLDFDALGSMVLAGRLYPGSVLALVGGVEGVLREVLPLLEDRLDLVPASEIPLDRVREVVLVDNARPERLGPLAALVGRVPFLVYDHHPRTPGDVPAVGGRVAPVGATVSLLVPLLLERGVALDPLEATLAYAGLWEDTGGFSFPSTTPEDLEAAGHLLRQGAEVARVRDWVRPRFGEEAREILSQLLKTAHLVERKGFRLLVARAREKGYVPALAPLAHTLLDLYEADGVLLALRLGGDTLLIARSKARLDVGRWLGALGGGGHARAAFARVRGKGRALARLLETLEAFLDPEPTLGQAMTAPVETLRPTSVREALRQLEERGYGAMPVVEPLGEGVRVLGLARRRDLRKAVRLGFGDHPVEGFLVRAVVLPPSTPLSQVEPRLREAGGRVLVGERAGEGWRLLGIYTRTDLYRSAPRPEPTLAERVLKALPSGVFRVVEALREAFPEGVYLVGGAVRDALLGRSGPDLDLAVGPGVEVARVAQFLVDRFGGSYGLHYAFGTARVRLPFGLVVDLAESREEVYPYPGALPEVRRAPIARDLERRDYSVNAMAVDLGGLAFLDPYGGLRDLEARLLRPLHPLAFVEDPTRVVRGARLAARLGFRFAEEVPRLLAPALLPEVVAGASRSRLREELLLTLEEEAFYRALALLAELGALKALYGLDLPPEAPFLRLRAEEGLGEARLLLLLFHQKDPLERAAWLALPGRLREGLALLLAASRGEEVPKEALGREPLRAAFLALFPEKEAWLKAERRVLMGRDLLKLGLKPGPKVGEILRRVAEARRRGEVRSFEEELALARKLLGDGTLALPE,soluble
6,MRRVLVGAAALITALLVLTGCTKSISGTAVKAGGAGVPRNNNSQERYPNLLKECEVLTTDILAKTVGADPLDIQSTFVGAICRWQAANPAGLIDITRFWFEQGSLSNERKVAEGLKYQVETRAIQGVDSIVMRTGDPNGACGVASDAAGVVGWWVNPQAPGIDACGQAIKLMELTLATNA,soluble
7,MTQPAAAVAAAAPAQTAPILGECVLKLSRSTTYEPPLYLFPELLPPVPQGTPPLPVWDAVADAVDIAASSWRVADATQLIAAGVAAAGTSGIKPSTGVERRPQAMVTLTSMIAENRLLAAGLDATVLERDAFSSAAIITHLAALQARMGLSDEEGAAIMSNHFINLLAWQKLRELNGPSLHAAVSRAEQKVSDEEAAGSAAFSPSHAAPPPSRKRSRADQDNDERDVWLPSPHPWATEAELAASDGSGRFVAVSEANVEQQVELLRTLAELYHRPWRTLASRGQQTDFVVPPGTVNVTSPFADNSKVPGALLDPATALGWGATLSSSLSTDYFGGVRVAHTACFYAVVLSAGTPTSAGKSVAPAPTRLPLDELTTYFGRESGVRGAAAVAAAAATPIAGALAPYTTHPEVLSRFQFALVLRPVYEHAADANEVRRPDSHLHVGKREPSTDDEASESDADAHQGHAAVLHTKRPHHYTLWLVNYGRNGVRVAGRGWVLSEPRQLQAGDVLIVGSEVQLRVEEHFSAAAARAPVVSDATLNTASVSSSQVKQERIEG,not soluble
8,MLKDEYGRVVTNLRIAVTKKCNLRCFYCHKEGESNPGEEISAERIVEIARAFKELGVRKLKITGGEPLLRKDLPDIILNLPEFEEISMTTNGILLEKYAEELRECGLSRVNVSLDTLDAEKYRWITGGGEVQKVVNGIEKACEVGLTPVKINMLVLGGVNDNEVDELLEFTNSFNRGNTKAILQVIELVPFPGFEKYFFDISTIEEKYARMATQRRVRAMHRRTQYFTPKGVIEFVKPMDNTAFCMHCNRMRVTSDGKLKPCLLRNETITIDGKHGEELARAIIETVRKREPYFKGLEHHHHHH,soluble
9,MGSDKIHHHHHHMGKSKRKILNWKQYNQALVNRGSVTFWLDKSAINAWHCKAHHGGRGRGFQFSDTAIETALMLKGVFKLSLRATEGFINSLFRLMDVPLAAPDYTCISKRAKTVEVKYRNPCRGPVTHLVVDSTGLKVYGEGEWKTRKHGKERRRTWRKLHLAIDADTHDVVSAEVSLVNVADNEVLPTMLNPLRRKVNQVSADGAYDTKECHKLLRHKGAKPTIPPRSNAGYWEDGHPRNEAVEALKSGTLKQWKDDNDYHQRSLSETAMYRYKQLISSKLSLRDYNAQVGEALAGVKAMNKVIGLGMPVRQTTA,not soluble
10,MGHHHHHHSHGSYANEISSSIIINRPAERLFDLWRKPETLPILMGHFASIEILNHTDSNWRINTPIGSLIEWQARIIDEKPGEYIHWRSLEGARVPNEGRLSFQPAASEAGTAVTLTIRYNPPGGLIGKKIGQMFDMFSRDMLTKTLYRFKKLAEDER,soluble
11,GPGHMEGLRCVVLPEDLCHKFLQLAESNTVRGIETCGILCGKLTHNEFTITHVIVPKQSAGPDYCDMENVEELFNVQDQHDLLTLGWIHTHPTQTAFLSSVDLHTHCSYQLMLPEAIAIVCSPKHKDTGIFRLTNAGMLEVSACKKKGFHPHTKEPRLFSICKHVLVKDIKIIVLDLR,soluble
12,MGSDKIHHHHHHMHHDLVDVLIIEDESELARLHAELVQKHPRLRLAGMAASLAQARQLLHATPPQLVLLDNYLPDGKGVTLMTDPALATSQCSVIFITAASDMETCSQAIRNGAFDYILKPVSWKRLSQSLERFIQFYDQQREWKIVDQQNVDSLYQLQAKNYRVDSGSKGIEEKTLALVQGLFSDREAHCFSVDEVVSAAGLSKTTARRYLEHGVETGFLEVEMLYGKIGHPRRLYRRAKVKS,not soluble
13,MKKHHHHHHLVPRGSIPHLILELLKCEPDEPQVQAKIMAYLQQEQANRSKHEKLSTFGLMCKMADQTLFSIVEWARSSIFFRELKVDDQMKLLQNCWSELLILDHIYRQVVHGKEGSIFLVTGQQVDYSIIASQAGATLNNLMSHAQELVAKLRSLQFDQREFVCLKFLVLFSLDVKNLENFQLVEGVQEQVNAALLDYTMCNYPQQTEKFGQLLLRLPEIRAISMQAEEYLYYKHLNGDVPYNNLLIEMLHAKRA,soluble
14,MKPEDFRTDNKRPLTGEEYLKSLQDGREIYIYGERVKDVTTHPAFRNAAASVAQLYDALHKPSMQDTLCWNTDTGSGGYTHKFFRVAKSADDLRQQRDAIAEWSRLSYGWMGRTPDYKAAFGCALGANPAFYGQFEQNARNWYTRIQETGLYFNHAIVNPPIDRHKPADEVKDVYIKLEKETDAGIIVSGAKVVATNSALTHYNMIGFGSAQVMGENPDFALMFVAPMDAEGVKLISRASYEMVAGATGSPFDYPLSSRFDENDAILVMDKVLIPWENVLIYRDFDRCRRWTMEGGFARMYPLQACVRLAVKLDFITALLKKSLECTGTVEFRGVQADLGEVVAWRNMFWALSDSMCSEATPWVNGAWLPDHAALQTYRVMAPMAYAKIKNIIERNVTSGLIYLPSSARDLNNPQIDQYLAKYVRGSNGMDHVERIKILKLMWDAIGSEFGGRHELYEINYSGSQDEIRLQCLRQAQSSGNMDKMMAMVDRCLSEYDQNGWTVSHLHNNDDINQLDKLLK,not soluble
15,MSAIDCIITAAGLSSRMGQWKMMLPWEQGTILDTSIKNALQFCSRIILVTGYRGNELHERYANQSNITIIHNPDYAQGLLTSVKAAVPAVQTEHCFLTHGDMPTLTIDIFRKIWSLRNDGAILPLHNGIPGHPILVSKPCLMQAIQRPNVTNMRQALLMGDHYSVEIENAEIILDIDTPDDFITAKERYTEILEHHHHHH,soluble
16,MPEITLNCQKLPCPQPVLRCKALLDTEAPARCTVTVDNAPASENVARFLTSRGYDTSVHADPEGLWNIIAVRKDSAVAPSCDCEVMDARGIAAIAGTAEMPQKVTVFITSETLGSGDDVLGGKLMANFLATLPELGDELWRIVCVNGGVRLATREHPAVTHLNKLEAMGVDILVCGTCLDHFGLLSEKAVGQTTNMLDVVTSLQLATKVIRPLEHHHHHH,soluble
17,MEKDAQAGEPEEEEVDDELSSTDLYEDSMAEVTLNETRGGHDSDPFDRSGEYDEDVDLAAPPPITPDIPEIPADVLISLKNRAEGTAIDLKNLKNPFDDSQKVDESEVEAPLK,soluble
18,MLRDKSVNLDDGDPFTIALFGVDSNAERNANGGGQRSDTIMVLSVNPEKKTTEIVSIPRDTQADIVGKGTTEKINHAYAYGGPDMAVKSLEKLLNVPIDHYATIDMDGMQDMIDTVGGITVTSNATFSYDGYQFTEGERSKMDGKEAMAFIRSRKEDGAGGDFGRQERQQLVIQGLANKLTSVSSITHFNSLMNHVEDNVKTDLSVGELNKVRSNYKDANDNVNRHQLEGQGGIQDDGLYYFVPSENSLNEIETNVKDNLGILEHHHHHH,soluble
19,MGHHHHHHSHMGFGSDLKNSHEAVLKLQDWELRLLETVKKFMALRIKSDKEYASTLQNLCNQVDKESTVQMNYVSNVSKSWLLMIQQTEQLSRIMKTHAEDLNSGPLHRLTMMIKDKQQVKKSYIGVHQQIEAEMIKVTKTELEKLKCSYRQLIKEMNSAKEKYKEALAKG,soluble
20,GPGSMTAVSNAAAVQATSGANGGSAVVTFFTTTYSKPMPEQSFSVPLNVLPDGLNQLVQNVLGVEGQNFDFLYKDEYIGTTLFRFLQRRGISCEELLNIEYTPALQAKEGNLLPHDDWVSSVRAPYRNNAELLLTGSYDHCVRLWDGDSCLALGSFHREAVKEVALHPVAPASSKTGRKRTRLDGDFMFASASKDGSVAAWKLDSTSSHMQLLGSIQAHTDGVDSVAIAPGDGRLVATASWDTTVKVFNWEQMMEGDTVPSKKAPLVTFTDHSRPVLCSRFSAAHGAARLYSAGYDGHIKCLDTEAAQLQSQFKGDHPINRISVKPAGSSPAADLLLSACTDNRARLFDTRQKDVVKTFSGSCQWLYSVVWLWDAQEGDAEHSGGSLFAVASEDATVRVYDLRCTNTALLTLDAMHTDGVLDVTYVGQSIIASGGKDNKTRSFALSKEGLLS,not soluble
